# According to PMC10164552, “PBRM1 bromodomains associate with RNA to facilitate chromatin association”:
# How the values were obtained:
# PBRM1 BD4 [1] = target: T1, PBRM1 BD4 (UniProt Q86U86 496-637); test: NMR titration (1H-15N HSQC); NMR: 0.1 mM 15N-BD, 50 mM K phosphate pH 7.0, 50 mM KCl, 2 mM DTT, 2 mM EDTA, 7% D2O, 25 C; EMSA: 50 mM K phosphate pH 7.0, 10 mM KCl, 2 mM DTT, 2 mM EDTA, 5% sucrose, on ice 1 h, gel at 4 C; conditions: protein: recombinant, tags: His tag, TEV-cleaved
# PBRM1 BD2 [2] = target: T2, PBRM1 BD2 (UniProt Q86U86 178-291); test: as above; conditions: protein: recombinant, tags: His tag, TEV-cleaved
# PBRM1 BD4 KRK_AAA = PBRM1 BD4 KRK_AAA (UniProt Q86U86 496-637, K511A;R512A;K513A); test: as above; conditions: protein: recombinant; tags: His tag, TEV-cleaved; hairpin, UUCG loop
# PBRM1 BD2 SKY_AAA = PBRM1 BD2 SKY_AAA (UniProt Q86U86 178-291, S275A;K277A;Y281A); test: as above; conditions: protein: recombinant; tags: His tag, TEV-cleaved; hairpin, UUCG loop
# PBRM1 BD4 [3] = target: T1, PBRM1 BD4; test: NMR titration (1H-15N HSQC); Kd only in figure, stated similar to other dsRNAs; NMR: 0.1 mM 15N-BD, 50 mM K phosphate pH 7.0, 50 mM KCl, 2 mM DTT, 2 mM EDTA, 7% D2O, 25 C; EMSA: 50 mM K phosphate pH 7.0, 10 mM KCl, 2 mM DTT, 2 mM EDTA, 5% sucrose, on ice 1 h, gel at 4 C; conditions: protein: recombinant, tags: His tag, TEV-cleaved
# PBRM1 BD2 [4] = target: T2, PBRM1 BD2; test: as above; conditions: protein: recombinant, tags: His tag, TEV-cleaved, hairpin
# T1 sequence (Q86U86 496-637): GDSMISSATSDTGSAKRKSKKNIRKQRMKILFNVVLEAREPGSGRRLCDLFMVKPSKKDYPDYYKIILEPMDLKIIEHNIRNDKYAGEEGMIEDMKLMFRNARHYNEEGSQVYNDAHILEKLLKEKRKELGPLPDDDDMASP
# T2 sequence (Q86U86 178-291): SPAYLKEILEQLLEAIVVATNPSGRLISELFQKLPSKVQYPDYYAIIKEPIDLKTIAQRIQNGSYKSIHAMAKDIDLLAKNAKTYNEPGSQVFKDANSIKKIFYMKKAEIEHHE
# Sequence of PBRM1 BD4 KRK_AAA (Q86U86 496-637 K511A/R512A/K513A): as the sequence (Q86U86 496-637) above, with K16A, R17A, K18A counted along it
# Sequence of PBRM1 BD2 SKY_AAA (Q86U86 178-291 S275A/K277A/Y281A): as the sequence (Q86U86 178-291) above, with S98A, K100A, Y104A counted along it
binder,measurement,setting,value
GCGUAGACAGCUGUUCGCAGCUGUCUACGC (structured_RNA) [dsRNAI stem-loop 30 nt],Kd,"PBRM1 BD4 [1]; hairpin, UUCG loop",120 ± 20 µM
same,Kd,"PBRM1 BD2 [2]; hairpin, UUCG loop",25 ± 8 µM
same,Kd,PBRM1 BD4 KRK_AAA,1020 ± 40 µM
same,Kd,PBRM1 BD2 SKY_AAA,200 ± 70 µM
dsDNA 11 bp (dsDNA) DNA 1: CGTAGACAGCT DNA 2: AGCTGTCTACG,Kd,PBRM1 BD4 [1]; blunt,500 ± 270 µM
same,Kd,PBRM1 BD2 [2]; blunt,910 ± 380 µM
GGCAUCGUGCUUCGGCACGAUGCC (structured_RNA) [dsRNAII stem-loop],binding result,"PBRM1 BD4 [3]; hairpin, UUCG loop",binds
same,binding result,PBRM1 BD2 [4]; UUCG loop,binds
GGCAUCGUGCAUCAGAAUGGCACGAUGCC (structured_RNA) [dsRNAIII stem-loop],binding result,PBRM1 BD4 [3]; hairpin,binds
same,binding result,PBRM1 BD2 [4],binds
dsRNAIV (no loop) (dsRNA) RNA 1: GGCAUCGUGC RNA 2: GCACGAUGCC,binding result,PBRM1 BD4 [3]; blunt,binds
UUUUUUUUUUUUU (ssRNA) [ssRNAI poly-U 13 nt],Kd,PBRM1 BD4 [1],320 ± 140 µM
same,Kd,PBRM1 BD2 [2],350 ± 80 µM
CGTAGACAGCT (ssDNA) [ssDNA],Kd,PBRM1 BD4 [1],2970 ± 140 µM
same,Kd,PBRM1 BD2 [2],130 ± 30 µM
